Results published in IntAct's records for PubMed 35512704.

B1: Mothers against decapentaplegic homolog 4 (Homo sapiens), Q13485 (parent)
chain: MDNMSITNTPTSNDACLSIVHSLMCHRQGGESETFAKRAIESLVKKLKEKKDELDSLITAITTNGAHPSKCVTIQRTLDGRLQVAGRKGFPHVIYARLWRWPDLHKNELKHVKYCQYAFDLKCDSVCVNPYHYERVVSPGIDLSGLTLQSNAPSSMMVKDEYVHDFEGQPSLSTEGHSIQTIQHPPSNRASTETYSTPALLAPSESNATSTANFPNIPVASTSQPASILGGSHSEGLLQIASGPQPGQQQNGFTGQPATYHHNSTTTWTGSRTAPYTPNLPHHQNGHLQHHPPMPPHPGHYWPVHNELAFQPPISNHPAPEYWCSIAYFEMDVQVGETFKVPSSCPIVTVDGYVDPSGGDRFCLGQLSNVHRTEAIERARLHIGKGVQLECKGEGDVWVRCLSDHAVFVQSYYLDREAGRAPGDAVHKIYPSAYIKVFDLRQCHRQMQQQAATAQAAAAAQAAAVAGNIPGPGSVGGIAPAISLSAAAGIGVDDLRRLCILRMSFVKGWGPDYPRQSIKETPCWIEIHLHRALQLLDEVLHTMPIADPQPLD

Variants of: B1
Conditions: with etv1_human ETV1, P50549

Row | effect of a mutation on the interaction | Variant
1 | with no effect | G386D

Variants of: B1
Conditions: with ezh2_human EZH2, Q15910

Row | effect of a mutation on the interaction | Variant
2 | with no effect | G386D

Variants of: B1
Conditions: with fadd_human FADD

Row | effect of a mutation on the interaction | Variant
3 | with no effect | G386D

Variants of: B1
Conditions: with facd2_human FANCD2, Q9BXW9

Row | effect of a mutation on the interaction | Variant
4 | with no effect | G386D

Variants of: B1
Conditions: with tnr6_human FAS

Row | effect of a mutation on the interaction | Variant
5 | with no effect | G386D

Variants of: B1
Conditions: with fgf19_human FGF19, O95750

Row | effect of a mutation on the interaction | Variant
6 | with no effect | G386D

Variants of: B1
Conditions: with fgfr3_human FGFR3, P22607

Row | effect of a mutation on the interaction | Variant
7 | with no effect | G386D

Variants of: B1
Conditions: with fgfr4_human FGFR4, P22455

Row | effect of a mutation on the interaction | Variant
8 | with no effect | G386D

Variants of: B1
Conditions: with foxo1_human FOXO1, Q12778

Row | effect of a mutation on the interaction | Variant
9 | with no effect | G386D

Variants of: B1
Conditions: with foxo3_human FOXO3, O43524

Row | effect of a mutation on the interaction | Variant
10 | with no effect | G386D

Variants of: B1
Conditions: with gbra6_human GABRA6, Q16445

Row | effect of a mutation on the interaction | Variant
11 | with no effect | G386D

Variants of: B1
Conditions: with gata2_human GATA2, P23769

Row | effect of a mutation on the interaction | Variant
12 | with no effect | G386D

Variants of: B1
Conditions: with gata3_human GATA3, P23771
gata3_human GATA3, P23771, sequence (P23771 whole entry): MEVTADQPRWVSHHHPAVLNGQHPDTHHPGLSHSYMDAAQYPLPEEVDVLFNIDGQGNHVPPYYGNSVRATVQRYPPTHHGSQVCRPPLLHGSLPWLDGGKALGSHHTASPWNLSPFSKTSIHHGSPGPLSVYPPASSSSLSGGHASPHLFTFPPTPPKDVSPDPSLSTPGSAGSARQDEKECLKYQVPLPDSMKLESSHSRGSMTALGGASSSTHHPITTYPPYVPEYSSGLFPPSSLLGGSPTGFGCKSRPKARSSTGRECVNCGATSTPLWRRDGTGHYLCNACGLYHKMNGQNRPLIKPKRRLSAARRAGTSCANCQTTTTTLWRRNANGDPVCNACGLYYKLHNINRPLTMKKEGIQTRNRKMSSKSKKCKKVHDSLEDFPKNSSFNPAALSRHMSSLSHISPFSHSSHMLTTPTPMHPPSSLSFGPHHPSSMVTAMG

Row | effect of a mutation on the interaction | Variant
13 | with no effect | G386D

Variants of: B1
Conditions: with gna11_human GNA11, P29992

Row | effect of a mutation on the interaction | Variant
14 | with no effect | G386D

Variants of: B1
Conditions: with gna13_human GNA13, Q14344

Row | effect of a mutation on the interaction | Variant
15 | with no effect | G386D

Variants of: B1
Conditions: with gnaq_human GNAQ

Row | effect of a mutation on the interaction | Variant
16 | with no effect | G386D

Variants of: B1
Conditions: with grm1_human GRM1, Q13255

Row | effect of a mutation on the interaction | Variant
17 | with no effect | G386D

Variants of: B1
Conditions: with grm3_human GRM3, Q14832

Row | effect of a mutation on the interaction | Variant
18 | with no effect | G386D

Variants of: B1
Conditions: with gsk3a_human GSK3A

Row | effect of a mutation on the interaction | Variant
19 | with no effect | G386D

Variants of: B1
Conditions: with gsk3b_human GSK3B

Row | effect of a mutation on the interaction | Variant
20 | with no effect | G386D

Variants of: B1
Conditions: with hdac1_human HDAC1, Q13547

Row | effect of a mutation on the interaction | Variant
21 | with no effect | G386D

Variants of: B1
Conditions: with hdac3_human HDAC3, O15379

Row | effect of a mutation on the interaction | Variant
22 | with no effect | G386D

Variants of: B1
Conditions: with hgf_human HGF

Row | effect of a mutation on the interaction | Variant
23 | with no effect | G386D

Variants of: B1
Conditions: with hif1a_human HIF1A

Row | effect of a mutation on the interaction | Variant
24 | with no effect | G386D

Variants of: B1
Conditions: with h31_human H3C1, P68431

Row | effect of a mutation on the interaction | Variant
25 | with no effect | G386D

Variants of: B1
Conditions: with hlab_human HLA-B

Row | effect of a mutation on the interaction | Variant
26 | with no effect | G386D

Variants of: B1
Conditions: with hnf1a_human HNF1A

Row | effect of a mutation on the interaction | Variant
27 | with no effect | G386D

Variants of: B1
Conditions: with rash_human HRAS

Row | effect of a mutation on the interaction | Variant
28 | with no effect | G386D

Variants of: B1
Conditions: with hs90a_human HSP90AA1, P07900

Row | effect of a mutation on the interaction | Variant
29 | with no effect | G386D

Variants of: B1
Conditions: with igf2_human IGF2, P01344

Row | effect of a mutation on the interaction | Variant
30 | with no effect | G386D

Variants of: B1
Conditions: with il7ra_human IL7R

Row | effect of a mutation on the interaction | Variant
31 | with no effect | G386D

Variants of: B1
Conditions: with int12_human INTS12, Q96CB8

Row | effect of a mutation on the interaction | Variant
32 | with no effect | G386D

Variants of: B1
Conditions: with irf6_human IRF6, O14896

Row | effect of a mutation on the interaction | Variant
33 | with no effect | G386D

Variants of: B1
Conditions: with irs1_human IRS1, P35568

Row | effect of a mutation on the interaction | Variant
34 | with no effect | G386D

Variants of: B1
Conditions: with ist1_human IST1, P53990
ist1_human IST1, P53990, sequence (P53990 whole entry): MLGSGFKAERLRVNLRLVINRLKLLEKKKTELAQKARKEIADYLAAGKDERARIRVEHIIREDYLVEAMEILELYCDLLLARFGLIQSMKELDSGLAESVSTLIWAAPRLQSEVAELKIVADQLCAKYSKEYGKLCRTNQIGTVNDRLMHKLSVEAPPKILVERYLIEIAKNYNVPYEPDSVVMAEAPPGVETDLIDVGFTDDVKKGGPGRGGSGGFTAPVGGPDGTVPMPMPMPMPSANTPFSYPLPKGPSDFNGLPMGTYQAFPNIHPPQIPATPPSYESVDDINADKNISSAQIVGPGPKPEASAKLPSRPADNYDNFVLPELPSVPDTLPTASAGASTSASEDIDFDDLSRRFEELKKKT

Row | effect of a mutation on the interaction | Variant
35 | with no effect | G386D

Variants of: B1
Conditions: with jak1_human JAK1, P23458

Row | effect of a mutation on the interaction | Variant
36 | with no effect | G386D

Variants of: B1
Conditions: with jak3_human JAK3, P52333
jak3_human JAK3, P52333, sequence (P52333 whole entry): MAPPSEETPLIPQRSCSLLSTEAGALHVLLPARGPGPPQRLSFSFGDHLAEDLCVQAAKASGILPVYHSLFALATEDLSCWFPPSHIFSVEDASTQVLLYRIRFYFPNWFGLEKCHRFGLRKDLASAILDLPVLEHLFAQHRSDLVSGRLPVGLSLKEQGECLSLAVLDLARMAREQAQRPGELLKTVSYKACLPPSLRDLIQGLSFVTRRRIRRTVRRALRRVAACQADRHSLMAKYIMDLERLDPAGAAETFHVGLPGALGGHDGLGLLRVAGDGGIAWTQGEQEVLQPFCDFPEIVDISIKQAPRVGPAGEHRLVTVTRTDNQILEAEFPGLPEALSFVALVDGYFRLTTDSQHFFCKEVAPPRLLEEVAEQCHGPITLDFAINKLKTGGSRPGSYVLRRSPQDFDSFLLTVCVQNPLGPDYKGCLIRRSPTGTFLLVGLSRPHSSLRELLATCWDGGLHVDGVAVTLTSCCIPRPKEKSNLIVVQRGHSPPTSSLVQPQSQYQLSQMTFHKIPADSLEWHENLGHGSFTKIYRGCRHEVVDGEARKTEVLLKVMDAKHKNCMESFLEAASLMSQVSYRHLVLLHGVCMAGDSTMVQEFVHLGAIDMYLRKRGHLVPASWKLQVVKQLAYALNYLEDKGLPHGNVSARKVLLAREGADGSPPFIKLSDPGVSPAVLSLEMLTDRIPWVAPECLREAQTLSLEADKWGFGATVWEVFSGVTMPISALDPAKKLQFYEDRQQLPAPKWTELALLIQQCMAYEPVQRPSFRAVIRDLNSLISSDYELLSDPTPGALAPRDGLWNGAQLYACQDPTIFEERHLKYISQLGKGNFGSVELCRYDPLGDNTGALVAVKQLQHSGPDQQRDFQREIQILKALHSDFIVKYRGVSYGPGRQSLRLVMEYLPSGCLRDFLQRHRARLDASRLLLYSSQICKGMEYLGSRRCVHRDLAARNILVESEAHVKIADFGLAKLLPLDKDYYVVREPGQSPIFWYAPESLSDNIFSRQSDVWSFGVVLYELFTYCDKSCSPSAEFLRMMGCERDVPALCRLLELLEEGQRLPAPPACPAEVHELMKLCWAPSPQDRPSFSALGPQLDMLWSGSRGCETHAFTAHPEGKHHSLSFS

Row | effect of a mutation on the interaction | Variant
37 | with no effect | G386D

Variants of: B1
Conditions: with kat2a_human KAT2A

Row | effect of a mutation on the interaction | Variant
38 | with no effect | G386D

Variants of: B1
Conditions: with kdm5c_human KDM5C

Row | effect of a mutation on the interaction | Variant
39 | with no effect | G386D

Variants of: B1
Conditions: with kdm6a_human KDM6A

Row | effect of a mutation on the interaction | Variant
40 | with no effect | G386D

Variants of: B1
Conditions: with vgfr2_human KDR

Row | effect of a mutation on the interaction | Variant
41 | with no effect | G386D

Variants of: B1
Conditions: with keap1_human KEAP1, Q14145

Row | effect of a mutation on the interaction | Variant
42 | with no effect | G386D

Variants of: B1
Conditions: with klf4_human KLF4, O43474
klf4_human KLF4, O43474, sequence (O43474 whole entry): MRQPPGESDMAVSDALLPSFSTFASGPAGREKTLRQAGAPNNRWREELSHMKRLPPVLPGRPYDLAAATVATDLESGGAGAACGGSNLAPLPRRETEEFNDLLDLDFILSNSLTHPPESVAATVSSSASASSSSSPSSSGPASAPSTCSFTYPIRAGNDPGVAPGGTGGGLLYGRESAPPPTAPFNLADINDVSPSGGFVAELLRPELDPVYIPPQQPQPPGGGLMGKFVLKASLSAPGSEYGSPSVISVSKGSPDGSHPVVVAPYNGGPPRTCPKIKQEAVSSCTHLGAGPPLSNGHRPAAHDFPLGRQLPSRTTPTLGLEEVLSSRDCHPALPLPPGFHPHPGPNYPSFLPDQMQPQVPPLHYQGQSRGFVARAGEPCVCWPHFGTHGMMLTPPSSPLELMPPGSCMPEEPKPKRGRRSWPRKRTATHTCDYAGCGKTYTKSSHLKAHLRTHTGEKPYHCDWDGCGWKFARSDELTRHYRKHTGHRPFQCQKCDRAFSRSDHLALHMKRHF

Row | effect of a mutation on the interaction | Variant
43 | with no effect | G386D

Variants of: B1
Conditions: with lims1_human LIMS1, P48059

Row | effect of a mutation on the interaction | Variant
44 | with no effect | G386D

Variants of: B1
Conditions: with maga6_human MAGEA6, P43360
maga6_human MAGEA6, P43360, sequence (P43360 whole entry): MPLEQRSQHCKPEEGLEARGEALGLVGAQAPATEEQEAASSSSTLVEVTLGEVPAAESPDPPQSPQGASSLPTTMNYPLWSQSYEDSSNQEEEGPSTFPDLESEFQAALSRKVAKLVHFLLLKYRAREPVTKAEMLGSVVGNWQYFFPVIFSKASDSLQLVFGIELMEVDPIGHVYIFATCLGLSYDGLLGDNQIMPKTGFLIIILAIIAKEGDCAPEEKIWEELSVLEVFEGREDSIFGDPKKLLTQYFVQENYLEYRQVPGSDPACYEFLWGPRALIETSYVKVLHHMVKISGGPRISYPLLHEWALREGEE

Row | effect of a mutation on the interaction | Variant
45 | with no effect | G386D

Variants of: B1
Conditions: with mp2k7_human MAP2K7, O14733

Row | effect of a mutation on the interaction | Variant
46 | with no effect | G386D

Variants of: B1
Conditions: with m3k1_human MAP3K1, Q13233

Row | effect of a mutation on the interaction | Variant
47 | with no effect | G386D

Variants of: B1
Conditions: with m3k5_human MAP3K5, Q99683

Row | effect of a mutation on the interaction | Variant
48 | with no effect | G386D

Variants of: B1
Conditions: with mk10_human MAPK10, P53779

Row | effect of a mutation on the interaction | Variant
49 | with no effect | G386D

Variants of: B1
Conditions: with mk14_human MAPK14, Q16539

Row | effect of a mutation on the interaction | Variant
50 | with no effect | G386D

Variants of: B1
Conditions: with mk03_human MAPK3, P27361

Row | effect of a mutation on the interaction | Variant
51 | with no effect | G386D

Variants of: B1
Conditions: with mk04_human MAPK4, P31152
mk04_human MAPK4, P31152, sequence (P31152 whole entry): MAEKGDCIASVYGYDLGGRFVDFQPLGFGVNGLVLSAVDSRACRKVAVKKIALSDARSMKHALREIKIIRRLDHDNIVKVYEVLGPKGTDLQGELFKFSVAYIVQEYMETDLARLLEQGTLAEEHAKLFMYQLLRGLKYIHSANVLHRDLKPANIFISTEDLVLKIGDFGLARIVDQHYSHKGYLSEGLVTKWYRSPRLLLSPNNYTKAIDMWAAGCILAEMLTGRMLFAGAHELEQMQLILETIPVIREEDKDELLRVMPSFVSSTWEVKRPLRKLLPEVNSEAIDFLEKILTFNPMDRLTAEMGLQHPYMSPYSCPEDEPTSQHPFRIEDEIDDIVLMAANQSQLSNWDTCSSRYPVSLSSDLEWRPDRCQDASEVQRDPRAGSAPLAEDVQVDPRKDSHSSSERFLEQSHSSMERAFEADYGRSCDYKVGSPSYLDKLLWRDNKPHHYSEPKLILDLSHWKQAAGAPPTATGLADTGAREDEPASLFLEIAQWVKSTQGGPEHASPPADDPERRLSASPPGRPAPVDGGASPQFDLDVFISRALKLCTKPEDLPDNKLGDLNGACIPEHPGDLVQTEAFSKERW

Row | effect of a mutation on the interaction | Variant
52 | with no effect | G386D

Variants of: B1
Conditions: with mk06_human MAPK6, Q16659

Row | effect of a mutation on the interaction | Variant
53 | with no effect | G386D

Variants of: B1
Conditions: with mk07_human MAPK7, Q13164

Row | effect of a mutation on the interaction | Variant
54 | with no effect | G386D

Variants of: B1
Conditions: with mcl1_human MCL1, Q07820

Row | effect of a mutation on the interaction | Variant
55 | with no effect | G386D

Variants of: B1
Conditions: with mitf_human MITF

Row | effect of a mutation on the interaction | Variant
56 | with no effect | G386D

Variants of: B1
Conditions: with mtor_human MTOR

Row | effect of a mutation on the interaction | Variant
57 | with no effect | G386D

Variants of: B1
Conditions: with myc_human MYC

Row | effect of a mutation on the interaction | Variant
58 | with no effect | G386D

Variants of: B1
Conditions: with nf1_human NF1, P21359

Row | effect of a mutation on the interaction | Variant
59 | with no effect | G386D

Variants of: B1
Conditions: with merl_human NF2, P35240

Row | effect of a mutation on the interaction | Variant
60 | with no effect | G386D

Variants of: B1
Conditions: with nfic_human NFIC

Row | effect of a mutation on the interaction | Variant
61 | with no effect | G386D

Variants of: B1
Conditions: with ikba_human NFKBIA

Row | effect of a mutation on the interaction | Variant
62 | with no effect | G386D

Variants of: B1
Conditions: with notc2_human NOTCH2, Q04721

Row | effect of a mutation on the interaction | Variant
63 | with no effect | G386D

Variants of: B1
Conditions: with nox1_human NOX1, Q9Y5S8

Row | effect of a mutation on the interaction | Variant
64 | with no effect | G386D

Variants of: B1
Conditions: with ntrk2_human NTRK2, Q16620

Row | effect of a mutation on the interaction | Variant
65 | with no effect | G386D

Variants of: B1
Conditions: with pak3_human PAK3, O75914
pak3_human PAK3, O75914, sequence (O75914 whole entry, looked up): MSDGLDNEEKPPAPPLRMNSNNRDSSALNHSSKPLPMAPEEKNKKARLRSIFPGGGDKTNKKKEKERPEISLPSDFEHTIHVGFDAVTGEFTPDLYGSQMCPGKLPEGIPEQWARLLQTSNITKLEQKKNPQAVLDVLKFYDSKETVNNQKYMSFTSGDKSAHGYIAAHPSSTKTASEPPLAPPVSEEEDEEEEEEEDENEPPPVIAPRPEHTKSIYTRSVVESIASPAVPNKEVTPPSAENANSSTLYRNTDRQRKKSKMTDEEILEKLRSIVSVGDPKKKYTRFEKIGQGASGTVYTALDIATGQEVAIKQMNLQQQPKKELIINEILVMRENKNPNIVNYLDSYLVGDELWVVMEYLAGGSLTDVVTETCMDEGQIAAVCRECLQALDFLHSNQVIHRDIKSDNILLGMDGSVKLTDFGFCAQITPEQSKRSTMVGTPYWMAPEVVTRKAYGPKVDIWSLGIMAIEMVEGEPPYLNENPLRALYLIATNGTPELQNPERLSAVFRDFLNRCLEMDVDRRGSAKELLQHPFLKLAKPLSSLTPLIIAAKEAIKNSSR

Row | effect of a mutation on the interaction | Variant
66 | with no effect | G386D

Variants of: B1
Conditions: with prkn_human PRKN

Row | effect of a mutation on the interaction | Variant
67 | with no effect | G386D

Variants of: B1
Conditions: with pax5_human PAX5, Q02548
pax5_human PAX5, Q02548, sequence (Q02548 whole entry): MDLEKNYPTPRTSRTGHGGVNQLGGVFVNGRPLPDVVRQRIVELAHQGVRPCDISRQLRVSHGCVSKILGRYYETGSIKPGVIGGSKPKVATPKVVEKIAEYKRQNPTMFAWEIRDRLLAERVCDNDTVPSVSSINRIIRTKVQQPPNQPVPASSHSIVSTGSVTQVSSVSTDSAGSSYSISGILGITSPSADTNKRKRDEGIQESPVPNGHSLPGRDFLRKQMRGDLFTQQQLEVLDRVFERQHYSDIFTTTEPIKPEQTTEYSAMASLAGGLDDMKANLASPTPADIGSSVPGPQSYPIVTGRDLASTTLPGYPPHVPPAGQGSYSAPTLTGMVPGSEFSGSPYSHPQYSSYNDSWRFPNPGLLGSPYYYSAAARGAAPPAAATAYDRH

Row | effect of a mutation on the interaction | Variant
68 | with no effect | G386D

Variants of: B1
Conditions: with pax9_human PAX9, P55771

Row | effect of a mutation on the interaction | Variant
69 | with no effect | G386D

Variants of: B1
Conditions: with pb1_human PBRM1, Q86U86

Row | effect of a mutation on the interaction | Variant
70 | with no effect | G386D

Variants of: B1
Conditions: with pcbp1_human PCBP1, Q15365

Row | effect of a mutation on the interaction | Variant
71 | with no effect | G386D

Variants of: B1
Conditions: with pgfra_human PDGFRA

Row | effect of a mutation on the interaction | Variant
72 | with no effect | G386D

Variants of: B1
Conditions: with pgfrb_human PDGFRB

Row | effect of a mutation on the interaction | Variant
73 | with no effect | G386D

Variants of: B1
Conditions: with pdk1_human PDK1, Q15118

Row | effect of a mutation on the interaction | Variant
74 | with no effect | G386D

Variants of: B1
Conditions: with PIK3C2B

Row | effect of a mutation on the interaction | Variant
75 | with no effect | G386D

Variants of: B1
Conditions: with pk3c3_human PIK3C3, Q8NEB9

Row | effect of a mutation on the interaction | Variant
76 | with no effect | G386D

Variants of: B1
Conditions: with pk3ca_human PIK3CA

Row | effect of a mutation on the interaction | Variant
77 | with no effect | G386D

Variants of: B1
Conditions: with pk3cb_human PIK3CB

Row | effect of a mutation on the interaction | Variant
78 | with no effect | G386D

Variants of: B1
Conditions: with pk3cg_human PIK3CG

Row | effect of a mutation on the interaction | Variant
79 | with no effect | G386D

Variants of: B1
Conditions: with p85a_human PIK3R1, P27986
p85a_human PIK3R1, P27986, sequence (P27986 whole entry): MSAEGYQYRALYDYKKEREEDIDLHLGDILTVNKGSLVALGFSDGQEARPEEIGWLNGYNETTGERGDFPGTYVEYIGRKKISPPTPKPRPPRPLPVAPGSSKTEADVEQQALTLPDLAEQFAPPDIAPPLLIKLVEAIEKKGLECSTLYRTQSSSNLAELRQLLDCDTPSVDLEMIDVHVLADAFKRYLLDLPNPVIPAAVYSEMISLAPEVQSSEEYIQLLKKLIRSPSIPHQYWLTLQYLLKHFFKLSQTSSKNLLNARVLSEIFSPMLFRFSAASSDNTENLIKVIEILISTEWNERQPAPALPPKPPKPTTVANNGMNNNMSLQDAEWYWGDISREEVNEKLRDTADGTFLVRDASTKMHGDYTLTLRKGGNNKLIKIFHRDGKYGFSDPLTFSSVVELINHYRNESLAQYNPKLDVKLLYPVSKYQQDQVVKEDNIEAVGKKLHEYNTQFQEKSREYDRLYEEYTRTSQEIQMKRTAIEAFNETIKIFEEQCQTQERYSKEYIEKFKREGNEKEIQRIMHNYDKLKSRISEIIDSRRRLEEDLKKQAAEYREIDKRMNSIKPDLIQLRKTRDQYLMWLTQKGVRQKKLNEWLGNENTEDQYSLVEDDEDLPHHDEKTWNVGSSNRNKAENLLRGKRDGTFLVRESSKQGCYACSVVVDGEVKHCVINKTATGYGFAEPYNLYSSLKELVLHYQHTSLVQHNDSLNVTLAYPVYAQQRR

Row | effect of a mutation on the interaction | Variant
80 | with no effect | G386D
